Source: patent US20100081638A1 (KOREA RESEARCH INSTITUTE OF BIOSCIENCE AND BIOTECHNOLOGY, published 2010)

Biological target: T1, focal adhesion kinase (FAK) (UniProt Q05397 2-1052)
T1 construct: Endogenous protein in lysates of SNU449 cell lines
Assay: physical association in SNU449 cell lysates with or without tiarellic acid (FIG. 10; method not described)

T1 sequence (Q05397 2-1052 limits assumed): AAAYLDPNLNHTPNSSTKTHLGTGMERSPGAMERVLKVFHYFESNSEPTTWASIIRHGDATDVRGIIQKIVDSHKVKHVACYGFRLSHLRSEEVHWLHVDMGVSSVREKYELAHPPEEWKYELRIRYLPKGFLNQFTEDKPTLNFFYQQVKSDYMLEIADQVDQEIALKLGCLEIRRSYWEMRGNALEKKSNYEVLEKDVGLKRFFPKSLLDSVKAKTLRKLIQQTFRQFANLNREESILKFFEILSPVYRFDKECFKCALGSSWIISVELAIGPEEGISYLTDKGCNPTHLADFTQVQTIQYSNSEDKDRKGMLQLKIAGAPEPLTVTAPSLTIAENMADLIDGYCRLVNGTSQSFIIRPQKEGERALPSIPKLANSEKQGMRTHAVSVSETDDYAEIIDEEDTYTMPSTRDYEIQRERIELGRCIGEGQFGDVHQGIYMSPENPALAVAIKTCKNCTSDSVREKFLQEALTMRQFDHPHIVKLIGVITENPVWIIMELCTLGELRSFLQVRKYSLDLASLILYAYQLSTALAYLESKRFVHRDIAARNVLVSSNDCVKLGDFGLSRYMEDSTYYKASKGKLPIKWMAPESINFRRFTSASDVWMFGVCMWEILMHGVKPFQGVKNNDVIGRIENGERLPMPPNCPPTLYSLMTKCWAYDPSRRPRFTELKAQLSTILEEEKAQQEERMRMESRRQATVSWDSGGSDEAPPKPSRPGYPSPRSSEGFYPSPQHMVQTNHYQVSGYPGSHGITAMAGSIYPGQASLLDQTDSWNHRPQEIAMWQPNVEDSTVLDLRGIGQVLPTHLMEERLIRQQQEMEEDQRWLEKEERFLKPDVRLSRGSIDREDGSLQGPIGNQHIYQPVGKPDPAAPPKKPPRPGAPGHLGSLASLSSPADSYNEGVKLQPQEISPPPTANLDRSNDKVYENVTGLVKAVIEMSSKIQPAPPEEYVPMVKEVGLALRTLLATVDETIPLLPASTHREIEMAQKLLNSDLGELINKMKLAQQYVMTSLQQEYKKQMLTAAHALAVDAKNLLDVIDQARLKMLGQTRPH

binding result: binds
B1: p130Cas (other, UniProt P56945 1-870, looked up)
chain: MNHLNVLAKALYDNVAESPDELSFRKGDIMTVLEQDTQGLDGWWLCSLHGRQGIVPGNRLKILVGMYDKKPAGPGPGPPATPAQPQPGLHAPAPPASQYTPMLPNTYQPQPDSVYLVPTPSKAQQGLYQVPGPSPQFQSPPAKQTSTFSKQTPHHPFPSPATDLYQVPPGPGGPAQDIYQVPPSAGMGHDIYQVPPSMDTRSWEGTKPPAKVVVPTRVGQGYVYEAAQPEQDEYDIPRHLLAPGPQDIYDVPPVRGLLPSQYGQEVYDTPPMAVKGPNGRDPLLEVYDVPPSVEKGLPPSNHHAVYDVPPSVSKDVPDGPLLREETYDVPPAFAKAKPFDPARTPLVLAAPPPDSPPAEDVYDVPPPAPDLYDVPPGLRRPGPGTLYDVPRERVLPPEVADGGVVDSGVYAVPPPAEREAPAEGKRLSASSTGSTRSSQSASSLEVAGPGREPLELEVAVEALARLQQGVSATVAHLLDLAGSAGATGSWRSPSEPQEPLVQDLQAAVAAVQSAVHELLEFARSAVGNAAHTSDRALHAKLSRQLQKMEDVHQTLVAHGQALDAGRGGSGATLEDLDRLVACSRAVPEDAKQLASFLHGNASLLFRRTKATAPGPEGGGTLHPNPTDKTSSIQSRPLPSPPKFTSQDSPDGQYENSEGGWMEDYDYVHLQGKEEFEKTQKELLEKGSITRQGKSQLELQQLKQFERLEQEVSRPIDHDLANWTPAQPLAPGRTGGLGPSDRQLLLFYLEQCEANLTTLTNAVDAFFTAVATNQPPKIFVAHSKFVILSAHKLVFIGDTLSRQAKAADVRSQVTHYSNLLCDLLRGIVATTKAAALQYPSPSAAQDMVERVKELGHSTQQFRRVLGQLAAA
notes: Endogenous protein in lysates of SNU449 cell lines
